The source of these data is patent US9766245B2, “Method of detecting cancer based on glycan biomarkers” (California Institute of Technology, priority 2013, dated 2017).

The target in data set [1] is T1, BgtA (Helicobacter mustelae, UniProt D3UIY4). As to the kind of experiment: BgtA labeling of Galβ(1-4)GlcNAc-pNP in solution. The format is biochemical. Particulars: 2 h, 25° C.
The target in data set [2] is T1, BgtA. As to the kind of experiment: Chemoenzymatic labeling on the glycan array. In kind it is biochemical. The conditions noted are these: 0.5, 2 and 12 h, rt; ADIBO-biotin, Cy5-streptavidin; labeled if 12 h signal minus background >1000 relative fluorescence units. The procedure:
Chemoenzymatic Labeling on the Glycan Array.
Glycan Array version 5.0 was provided by the Consortium for Functional Glycomics (CFG). Pre-equilibrated arrays were treated with BgtA enzyme (0.16 mg/mL) and 500 μM UDP-GalNAz 2 in 20 mM Tris.HCl pH 7.4, 50 mM NaCl, 2 mM MnCl2 containing 1% bovine serum albumin (BSA) for various times (0, 0.5, 2, and 12 h) at rt, washed 4 times with wash buffer (20 mM Tris.HCl pH 7.4, 50 mM NaCl, 0.1% Triton X-100) and then 4 times with rinse buffer (20 mM Tris.HCl pH 7.4, 50 mM NaCl). The arrays were then incubated with ADIBO-biotin (5 μM) in 20 mM Tris.HCl pH 7.4, 50 mM NaCl for 2 h at rt. […] The arrays were then washed 4 times with wash buffer (containing 0.05% Tween-20 instead of 0.1% Triton X-100), 4 times with rinse buffer, 4 times with water, dried under a low stream of filtered air, and scanned using a PerkinElmer ScanArray Express fluorescence scanner and ImaGene data analysis software (BioDiscovery). Data were analyzed per the guidelines of the CFG. […] Because background fluorescence can be heterogeneous across the array, each array was divided into areas of 10 by 10 spots, or sub-arrays, and a background fluorescence value was calculated within each sub-array by the software. This value was then subtracted from the fluorescence signal for each glycan spot within the sub-array by the software. […]

The target of data set [3] is T1, BgtA. As to the kind of experiment: Kinetic analysis of BgtA with UDP-GalNAz and UDP-GalNAc. The format is biochemical. Particulars: 100 μM acceptor 1. The procedure:
(§1) Kinetic Analysis of BgtA with UDP-GalNAz and UDP-GalNAc.
(§2) Reactions were performed in duplicate with 100 μM acceptor substrate (1), 0.7 μg BgtA, and varying concentrations of UDP-GalNAz or UDP-GalNAc (50 to 800 μM) in 20 mM Tris-HCl pH 7.5, 50 mM NaCl, 10 mM MnCl2 at rt in a total volume of 20 μL. Product formation was monitored at 280 nm by reverse phase-HPLC (Agilent 1100), and time points were taken over the course of 5 min using a linear, 3-95% gradient of B (A: 0.1% aqueous trifluoroacetic acid B: 0.1% trifluoroacetic acid in MeCN) over 8 min with a flow rate of 1 mL/min. The kinetic parameters, apparent Km, Vmax, and kcat, were obtained by linear regression analysis of initial velocity vs. donor substrate concentration using KaleidaGraph (version 4.1.2).

Data set [4] has as its target T1, BgtA. As to the kind of experiment: BgtA activity assay monitored by LC-MS/MS. The format is biochemical. Particulars: donor substrate, 12 h at 4° C. How it is done: BgtA Activity Assay and Monitoring of Chemoenzymatic Labeling Reactions by LC-MS/MS.
The Fucα(1-2)Gal substrate 1 (10 μM) was dissolved in 20 mM Tris.HCl pH 7.5, 50 mM NaCl, and 5 mM MnCl2. BgtA enzyme (Yi, W.; Shen, J.; Zhou, G.; Li, J.; Wang, P. G. J. Am. Chem. Soc. 2008, 130, 14420.) and UDP-ketoGal 3 (Khidekel, N.; Arndt, S.; Lamarre-Vincent, N.; Lippert, A.; Poulin-Kerstien, K. G.; Ramakrishnan, B.; Qasba, P. K.; Hsieh-Wilson, L. C. J. Am. Chem. Soc. 2003, 125, 16162.) or UDP-GalNAz 2 (Invitrogen) were added to final concentrations of 0.16 mg/mL and 50 μM, respectively, in a final volume of 100 μL. The reaction was incubated at 4° C. in the dark for 12-16 h, and the reaction progress was monitored by LC-MS/MS. To label with aminooxy-biotin 7, the reactions were diluted 5-fold with saturated urea, 2.7 M NaOAc pH 3.9 (50 mM final concentration and pH 4.8), and 7 (5 mM final concentration, Dojindo) and incubated for 20-24 h at rt. To label with ADIBO-biotin 6, 250 μM of 6 (Click Chemistry Tools) was added, and the reaction was incubated for 3 h at rt. […]

In data set [5] the test system is [N-]=[N+]=NCC(=O)N[C@H]1[C@@H](OP(=O)(O)OP(=O)(O)OC[C@H]2O[C@@H](n3ccc(=O)[nH]c3=O)[C@H](O)[C@@H]2O)O[C@H](CO)[C@H](O)[C@@H]1O. As to the kind of experiment: Kinetic analysis of BgtA with UDP-GalNAz and UDP-GalNAc. In kind it is biochemical, Helicobacter mustelae. Particulars: other: donor substrate, 100 μM acceptor 1, donor 50 to 800 μM, rt; pH 7.5. The procedure:
as §1, §2

Data set [6] deals with CC(=O)N[C@H]1[C@@H](OP(=O)(O)OP(=O)(O)OC[C@H]2O[C@@H](n3ccc(=O)[nH]c3=O)[C@H](O)[C@@H]2O)O[C@H](CO)[C@H](O)[C@@H]1O. The data set is described as above. The format is biochemical, Helicobacter mustelae. The conditions noted are these: other: donor substrate, 100 μM acceptor 1, donor 50 to 800 μM, rt; pH 7.5. The procedure:
as §1, §2

The target of data set [7] is T1, BgtA. As to the kind of experiment: Chemoenzymatic labeling of cell lysates, streptavidin capture and Western blotting. In kind it is biochemical. The conditions noted are these: rat brain (olfactory bulb) lysates, BgtA + UDP-GalNAz, alkyne-biotin 11, streptavidin capture, immunoblot; in the presence but not absence of BgtA.

With `CC(=O)N[C@H]1[C@H](Oc2ccc([N+](=O)[O-])cc2)O[C@H](CO)[C@@H](O[C@@H]2O[C@H](CO)[C@H](O)[C@H](O)[C@H]2O)[C@@H]1O` [Galβ(1-4)GlcNAc-pNP, p-nitrophenyl 2-acetamido-2-deoxy-4-O-(β-D-galactopyranosyl)-β-D-glucopyranoside], the “labeling by BgtA in solution” value on BgtA [1] is “failed to label”.

As to `CC(=O)N[C@@H]1[C@@H](O[C@@H]2O[C@H](CO)[C@H](O)[C@H](O)[C@H]2O[C@@H]2O[C@@H](C)[C@@H](O)[C@@H](O)[C@@H]2O)[C@H](O[C@@H]2O[C@@H](C)[C@@H](O)[C@@H](O)[C@@H]2O)[C@@H](CO)O[C@H]1O` [Glycan 61], the “labeling of glycan by BgtA and UDP-GalNAz on microarray” value at BgtA [2] was “weak labeling”.

For the molecule `CC(=O)N[C@H]1[C@@H](OP(=O)(O)OP(=O)(O)OC[C@H]2O[C@@H](n3ccc(=O)[nH]c3=O)[C@H](O)[C@@H]2O)O[C@H](CO)[C@H](O)[C@@H]1O` [UDP-GalNAc], at BgtA [3], the “Vmax fold higher than that of UDP-GalNAz” value was “approximately 5 fold”.

For the molecule `[N-]=[N+]=NCC(=O)N[C@H]1[C@@H](OP(=O)(O)OP(=O)(O)OC[C@H]2O[C@@H](n3ccc(=O)[nH]c3=O)[C@H](O)[C@@H]2O)O[C@H](CO)[C@H](O)[C@@H]1O` [UDP-GalNAz, UDP-N-azidoacetylgalactosamine], the “conversion of substrate 1 to the desired product with BgtA” value at BgtA [4] is “complete conversion”. Further, the “kcat/Km fold lower than natural UDP-GalNAc substrate” value on BgtA [3] was “approximately 7 fold”.

As a reminder, the Km is the concentration of substrate that gives half-maximal velocity. The term Vmax denotes the rate approached at saturating substrate. Regarding BgtA (Helicobacter mustelae 12198), in data set [5], the Km turned out to be 168 ± 55 µM and the Vmax stood at 0.020 ± 0.002 nmol/min. In addition, in data set [6], the Km is 127 ± 36 µM and the Vmax came to 0.100 ± 0.010 nmol/min.

On to “UDP-2-deoxy-2-(acetonyl)-β-D-galactopyranoside [UDP-ketoGal]”, for which the “conversion of substrate 1 to the desired product with BgtA” value on BgtA [4] is “complete conversion”.

Turning to “synapsin I: known Fucα(1-2)Gal glycoprotein in rat brain lysate”, the “chemoenzymatic labeling and detection of glycoprotein” value (shortened to “chemoenzymatic labeling and detection”) with BgtA [7] is “chemoenzymatically labeled and detected”.

B1: NCAM: known Fucα(1-2)Gal glycoprotein in rat brain lysate (protein, UniProt P13596 20-858, looked up)
Neural cell adhesion molecule …: LQVDIVPSQGEISVGESKFFLCQVAGDAKDKDISWFSPNGEKLSPNQQRISVVWNDDDSSTLTIYNANIDDAGIYKCVVTAEDGTQSEATVNVKIFQKLMFKNAPTPQEFKEGEDAVIVCDVVSSLPPTIIWKHKGRDVILKKDVRFIVLSNNYLQIRGIKKTDEGTYRCEGRILARGEINFKDIQVIVNVPPTVQARQSIVNATANLGQSVTLVCDADGFPEPTMSWTKDGEPIENEEEDDEKHIFSDDSSELTIRNVDKNDEAEYVCIAENKAGEQDASIHLKVFAKPKITYVENQTAMELEEQVTLTCEASGDPIPSITWRTSTRNISSEEKASWTRPEKQETLDGHMVVRSHARVSSLTLKSIQYTDAGEYICTASNTIGQDSQSMYLEVQYAPKLQGPVAVYTWEGNQVNITCEVFAYPSATISWFRDGQLLPSSNYSNIKIYNTPSASYLEVTPDSENDFGNYNCTAVNRIGQESLEFILVQADTPSSPSIDRVEPYSSTAQVQFDEPEATGGVPILKYKAEWKSLGEEAWHSKWYDAKEANMEGIVTIMGLKPETRYAVRLAALNGKGLGEISAATEFKTQPVREPSAPKLEGQMGEDGNSIKVNLIKQDDGGSPIRHYLVKYRALASEWKPEIRLPSGSDHVMLKSLDWNAEYEVYVVAENQQGKSKAAHFVFRTSAQPTAIPANGSPTAGLSTGAIVGILIVIFVLLLVVMDITCYFLNKCGLLMCIAVNLCGKAGPGAKGKDMEEGKAAFSKDESKEPIVEVRTEEERTPNHDGGKHTEPNETTPLTEPEKGPVETKSEPQESEAKPAPTEVKTVPNEATQTKENESKA
Consider B1, for which the “chemoenzymatic labeling and detection” value with BgtA [7] was “chemoenzymatically labeled and detected”.

B2: p44 MAPK: a protein that has not been shown to be fucosylated (protein, UniProt P21708 2-380, looked up)
Mitogen-activated protein …: AAAAAAPGGGGGEPRGTAGVVPVVPGEVEVVKGQPFDVGPRYTQLQYIGEGAYGMVSSAYDHVRKTRVAIKKISPFEHQTYCQRTLREIQILLRFRHENVIGIRDILRAPTLEAMRDVYIVQDLMETDLYKLLKSQQLSNDHICYFLYQILRGLKYIHSANVLHRDLKPSNLLINTTCDLKICDFGLARIADPEHDHTGFLTEYVATRWYRAPEIMLNSKGYTKSIDIWSVGCILAEMLSNRPIFPGKHYLDQLNHILGILGSPSQEDLNCIINMKARNYLQSLPSKTKVAWAKLFPKSDSKALDLLDRMLTFNPNKRITVEEALAHPYLEQYYDPTDEPVAEEPFTFDMELDDLPKERLKELIFQETARFQPGAPEAP
As for B2, the “chemoenzymatic labeling and detection” value in the data set with BgtA [7] was “not detected”.
